Target: T1, c-Met (mouse, UniProt P16056 25-1379)
T1 construct: whole, on cells; also called HGFR; HGF receptor
Assay: confocal microscopy of cells stained with anti-IL-7R-alpha and anti-c-Met; co-localisation on scIL-7/HGF-beta-stimulated cells and on pre-pro-B cells of normal BM
Source text: Consistent with these blocking experiments, approximately 60% of the scIL-7/HGF-beta culture-generated CLPs and pre-pro-B cells expressed both c-Met and the IL-7R, whereas more than 80% at the rIL-7 culture-generated pro-B cells expressed the IL-7R only (data not shown). […] However, as noted previously for native IL-7/HGF-beta, scIL-7/HGF-beta was able to “prime” pre-pro-B/pro-B cells to respond to rIL-7 (FIG. 32D), presumably by up-regulating the IL-7R-alpha chain. […] Direct evidence that both the IL-7R (alpha and gamma-c chains) and c-Met are major components of the receptor complex for IL-7/HGF-beta was provided on Western blots after purification of receptor proteins from culture-generated CLPs/pre-pro-B cells on a scIL-7/HGF-beta affinity gel (FIG. 34).

binding result: binds
B1: IL-7R (alpha and gamma-c chains) (receptor, mouse)
chain 1: ESGNAQDGDLEDADADDHSFWCHSQLEVDGSQHLLTCAFNDSDINTANLEFQICGALLRVKCLTLNKLQDIYFIKTSEFLLIGSSNICVKLGQKNLTCKNMAINTIVKAEAPSDLKVVYRKEANDFLVTFNAPHLKKKYLKKVKHDVAYRPARGESNWTHVSLFHTRTTIPQRKLRPKAMYEIKVRSIPHNDYFKGFWSEWSPSSTFETPEPKNQGGWDPVLPSVTILSLFSVFLLVILAHVLWKKRIKPVVWPSLPDHKKTLEQLCKKPKTSLNVSFNPESFLDCQIHEVKGVEARDEVESFLPNDLPAQPEELETQGHRAAVHSANRSPETSVSPPETVRRESPLRCLARNLSTCNAPPLLSSRSPDYRDGDRNRPPVYQDLLPNSGNTNVPVPVPQPLPFQSGILIPVSQRQPISTSSVLNQEEAYVTMSSFYQNK
chain 2: WSSKVLMSSANEDIKADLILTSTAPEHLSAPTLPLPEVQCFVFNIEYMNCTWNSSSEPQATNLTLHYRYKVSDNNTFQECSHYLFSKEITSGCQIQKEDIQLYQTFVVQLQDPQKPQRRAVQKLNLQNLVIPRAPENLTLSNLSESQLELRWKSRHIKERCLQYLVQYRSNRDRSWTELIVNHEPRFSLPSVDELKRYTFRVRSRYNPICGSSQQWSKWSQPVHWGSHTVEENPSLFALEAVLIPVGTMGLIITLIFVYCWLERMPPIPPIKNLEDLVTEYQGNFSAWSGVSKGLTESLQPDYSERFCHVSEIPPKGGALGEGPGGSPCSLHSPYWPPPCYSLKPEA
notes: whole, on cells; also called IL-7 receptor

Reference: patent US20070122380A1 (UNIVERSITY OF CONNECTICUT, published 2007)
